Measurements from patent publication US20050287132A1, “Biliverdin reductase fragments and variants, and methods of using biliverdin reductase and such fragments and variants” (University of Rochester, priority 1999, published 2005).

Tests used:
[1] = Biliverdin reductase activity of E. coli expressed hBVR wild type and mutants (Example 1); type: biochemical, human
Procedure: SalI linkers are underlined in each primer. The products were digested with SalI and cloned into the vector pGEX 4T-2. Orientation was determined by restriction analysis and confirmed by sequencing. The ligation places the BVR coding region in frame with the GST protein of the vector. GST-BVR fusion proteins were purified from bacterial clones containing the plasmid, and grown overnight using a glutathione-sepharose 4B column (Pharmacia). The reductase portion of the fusion protein was released by thrombin protease treatment.
Activity was determined as previously described (Kutty et al., J. Biol. Chem. 256:3956-3962 (1981); Huang et al., J. Biol. Chem. 264:7844-7849 (1989), which are hereby incorporated by reference). Activity was determined in a 1 ml assay volume that contained 0.1 M Tris/HCl, pH 8.7 NADPH (100 μM), and biliverdin (5 μM). Reductase activity was also measured using NADH (1 mM) as the cofactor; in this case 0.1 M potassium phosphate pH 6.75, was substituted for Tris/HCl. SDS/PAGE was performed by the method of Laemmli, Nature 227:680-685 (1970), which is hereby incorporated by reference. Western blot analysis was performed using anti-serum to human kidney biliverdin reductase as previously described (Maines et al., Arch. Biochem. Biophys. 300:320-326 (1993), which is hereby incorporated by reference). The relative amounts of immunoreactive protein were determined by scanning the blot using a laser densitometer and comparing the area under the peak for each mutant with the wild type. The rate of activity was measured as the increase in 450 nm absorbance at 25° C. Specific activity is expressed as nmol bilirubin/min/ mg protein.

HeLa cells = assay: Nuclear translocation of hemagglutinin-tagged BVR constructs after 8-bromo-cGMP, immunofluorescence; type: cell-based, human; conditions: 500 μM 8-bromo-cGMP, 5 min (up to 60 min)
Procedure: HeLa cells were grown on glass cover slips in DMEM medium containing 10% FBS under an atmosphere of 5% CO2. Cells were transfected with different BVR constructs using Lipofectamine, as described by the manufacturer. Briefly, cells were treated with a mixture of 2 μg DNA and 20 μl Lipofectamine for 5 h followed by the addition of DMEM medium. After 48 h, cells were treated with 500 μM 8-bromo-cGMP for 5, 20 or 60 min, fixed with 4% paraformaldehyde for 10 min. Cells were then rinsed with phosphate-buffered saline, incubated with 5% goat serum to block nonspecific binding sites and then with monoclonal anti hemagglutinin primary antibody and FITC conjugated secondary antibody. Cells were visualized by direct fluorescence microscopy.

[2] = Biliverdin reductase catalytic activity of recombinant wild type and mutant hBVR (Example 2, FIG. 3); type: biochemical, human
Procedure: FIGS. 3A-C are graphs depicting the effects of mutation of Gly^17, Ser^149, and Lys^296 on BVR catalytic activity. Purified preparations of recombinant wild type and mutant BVR with substitution of Gly^17 (FIG. 3A), Ser^149 (FIG. 3B), or Lys^296 (FIG. 3C) with Ala were assessed for BVR activity at pH 6.5 using NADH as cofactor and at pH 8.7 with NADPH as cofactor. Values presented are in percent wild type activity for each pH. The specific activity of the wild type preparation was 1744 nmol bilirubin produced min^−1 mg^−1 at pH 6.5 and 1147 nmol bilirubin produced min^−1 mg^−1 at pH 8.7. Values presented are representative of 2-4 determinations.
GST-BVR fusion proteins were prepared as described in Example 1. Human kidney biliverdin reductase was purified to homogeneity as described by Maines et al., Arch. Biochem. Biophys. 300:320-326 (1993), which is hereby incorporated by reference. The purified reductase preparations were judged to be homogenous by SDS-PAGE. Protein concentration was determined by the method of Bradford, Anal. Biochem. 72:248-254 (1976), which is hereby incorporated by reference.
Activity was determined as previously described by Huang et al., J. Biol. Chem. 264:7844-7849 (1989), which is hereby incorporated by reference, using NADPH as the cofactor at pH 8.7 in 0.1 M […] or NADH at pH 6.5 in […]. The rate of activity was measured as the increase in 450 nm absorbance at 25° C. Specific activity is expressed in units/mg protein, where 1 unit catalyzes the formation of 1 nmol bilirubin/min.

biliverdin reductase = assay: Phosphorylation state of hBVR, SDS-PAGE immunoblot with anti-phospho antibodies; type: biochemical, human; conditions: protein purified from human kidney, anti-phospho mix
Procedure: Purified protein was subjected to 12.5% SDS-PAGE and the protein transferred to PVDF membrane. The membrane was subsequently treated as for Western blotting, using anti-phosphoserine, anti-phosphotyrosine or anti-phosphothreonine, at 2 μg/ml, or a mixture of all three antibodies as the primary antibody. The secondary antibody was goat anti-rabbit horseradish peroxidase at a 1:1000 dilution and detection was carried out using the ECL reagent kit (NEN Life Sciences) according to the manufacturer's instructions.

B1: wild type: wild type human biliverdin reductase, SEQ. ID. No. 1; E. coli expressed or purified from human kidney (protein, listed as Homo sapiens)
chain: MNAEPERKFGVVVVGVGRAGSVRMRDLRNPHPSSAFLNLIGFVSRRELGSIDGVQQISLEDALSSQEVEVAYICSESSSHEDYIRQFLNAGKHVLVEYPMTLSLAAAQELWELAEQKGKVLHEEHVELLMEEFAFLKKEVVGKDLLKGSLLFTSDPLEEDRFGFPAFSGISRLTWLVSLFGELSLVSATLEERKEDQYMKMTVCLETEKKSPLSWIEEKGPGLKRNRYLSFHFKSGSLENVPNVGVNKNIFLKDQNIFVQKLLGQFSEKELAAEKKRILHCLGLAEEIQKYCCSRK
[1]; Cys→Ala mutations, wild type = 100, pH 6.7, NADH
  Activity % pH 6.7 + NADH: 100%
[1]; Cys→Ala mutations, wild type = 100, pH 8.7, NADPH
  Activity % pH 8.7 + NADPH: 100%
[1]; pH 6.7, NADH cofactor, 25°
  Activity (nmol bilirubin/min/mg) pH 6.7 + NADH: 2830 nmol bilirubin/min/mg
[1]; pH 8.7, NADPH cofactor, 25°
  Activity (nmol bilirubin/min/mg) pH 8.7 + NADPH: 1338 nmol bilirubin/min/mg
HeLa cells
  nuclear localization in response to 8-bromo-cGMP: strong punctate staining associated with the nucleus
[2]; pH 6.5, NADH
  specific activity: 1744 nmol bilirubin produced min^−1 mg^−1
[2]; pH 8.7, NADPH
  specific activity: 1147 nmol bilirubin produced min^−1 mg^−1
Biliverdin reductase
  phosphorylation state: phosphoprotein
